Measurements: US7445894B2, “Compositions and methods for detection and isolation of phosphorylated molecules” (priority 2002, dated 2008)

Columns and labels:
phosphopeptides = test: Quantitative binding of phosphopeptides using streptavidin ferrofluid particles; conditions: 550 pmoles phosphopeptides, particles saturated with Compound 9, charged with GaCl3, eluted with 0.15 M ammonium hydroxide
Method: Quantitative binding of phosphopeptides was accomplished using labeled ferrofluid particles. Streptavidin ferrofluid particles were labeled with Compound 9 until saturated. After washing away unbound dye, the particles were charged with 0.1 M GaCl3, then washed with 0.1 M NaOAc, pH 4.0. 100 μL of magnetic particles (4 mg/mL) was added with standard peptide mix containing 550 picomoles of phosphopeptides. The mixture was incubated for 20 min while gently vortexing. The particles were isolated using a magnetic separator and the resulting supernatant was removed. The beads were washed 2× with 100 μL 100 mM NaOAc, pH 4.0 and the phosphopeptides were eluted with 0.15 M ammonium hydroxide. Greater than 95% of the phosphopeptides (550 pmoles) were isolated.

[1] = system: T1, Abl peptide (New England Biolabs), substrate for Abl tyrosine kinase
T1 sequence: EAIYAAPFAKKK

[2] = system: T2, Glycogen synthase 1-10 peptide (Calbiochem)
T2 sequence: PLSRTLSVSS

[3] = system: T3, Kemptide (non-phosphorylated)
T3 sequence: LRRASLG

[4] = system: T4, crosstide, biotinylated synthetic peptide
T4 sequence: GRPRTSSFAEG

[5] = system: Bovine muscle myosin light chain
[6] = target: pp60 c-src (pY), phosphorylated form of the pp60 c-src peptide; test: peptide microarray on HydroGel slides; primary antibody at 1.5 µg/mL, then Alexa Fluor 647 goat anti-mouse; 632.8 nm excitation / 670 nm emission
[7] = target: pp60 c-src (pY), phosphorylated form of the pp60 c-src peptide; test: peptide microarray on HydroGel slides; primary antibody, then Zenon One Alexa Fluor 647 mouse IgG labeling reagent; 632.8 nm excitation / 670 nm emission

Sequence of Abl Protein Tyrosine Kinase (NEB) (P00520 whole entry): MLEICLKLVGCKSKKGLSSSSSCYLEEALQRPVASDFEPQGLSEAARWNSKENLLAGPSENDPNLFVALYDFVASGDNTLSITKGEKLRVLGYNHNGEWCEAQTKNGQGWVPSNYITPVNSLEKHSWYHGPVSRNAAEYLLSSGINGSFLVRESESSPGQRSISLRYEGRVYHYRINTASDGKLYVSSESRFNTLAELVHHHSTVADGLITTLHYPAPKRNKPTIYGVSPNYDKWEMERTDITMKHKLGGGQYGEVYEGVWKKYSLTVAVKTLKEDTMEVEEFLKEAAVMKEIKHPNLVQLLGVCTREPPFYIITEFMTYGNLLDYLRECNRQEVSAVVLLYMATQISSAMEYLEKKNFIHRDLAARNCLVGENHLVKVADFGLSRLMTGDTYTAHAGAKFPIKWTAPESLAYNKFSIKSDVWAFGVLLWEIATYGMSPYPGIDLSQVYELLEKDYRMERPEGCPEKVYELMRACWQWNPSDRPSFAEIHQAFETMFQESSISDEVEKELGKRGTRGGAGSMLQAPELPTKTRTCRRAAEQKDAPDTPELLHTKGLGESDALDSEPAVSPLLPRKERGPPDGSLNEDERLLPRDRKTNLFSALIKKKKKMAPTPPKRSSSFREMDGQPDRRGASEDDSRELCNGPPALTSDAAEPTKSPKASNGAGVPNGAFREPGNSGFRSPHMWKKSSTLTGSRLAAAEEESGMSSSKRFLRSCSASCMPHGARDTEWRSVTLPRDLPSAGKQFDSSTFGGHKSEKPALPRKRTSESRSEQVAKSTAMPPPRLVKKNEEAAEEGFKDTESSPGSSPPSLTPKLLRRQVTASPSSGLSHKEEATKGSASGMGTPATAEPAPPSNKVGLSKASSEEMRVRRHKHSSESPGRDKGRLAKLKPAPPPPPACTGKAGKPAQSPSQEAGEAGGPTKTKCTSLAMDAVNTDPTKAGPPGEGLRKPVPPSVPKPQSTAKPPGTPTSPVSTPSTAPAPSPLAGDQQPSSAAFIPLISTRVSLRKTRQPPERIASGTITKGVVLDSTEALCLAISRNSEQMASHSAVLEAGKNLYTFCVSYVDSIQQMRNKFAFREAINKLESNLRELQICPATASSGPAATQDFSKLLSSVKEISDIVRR
Sequence of Akt/Protein Kinase B (P31749 whole entry): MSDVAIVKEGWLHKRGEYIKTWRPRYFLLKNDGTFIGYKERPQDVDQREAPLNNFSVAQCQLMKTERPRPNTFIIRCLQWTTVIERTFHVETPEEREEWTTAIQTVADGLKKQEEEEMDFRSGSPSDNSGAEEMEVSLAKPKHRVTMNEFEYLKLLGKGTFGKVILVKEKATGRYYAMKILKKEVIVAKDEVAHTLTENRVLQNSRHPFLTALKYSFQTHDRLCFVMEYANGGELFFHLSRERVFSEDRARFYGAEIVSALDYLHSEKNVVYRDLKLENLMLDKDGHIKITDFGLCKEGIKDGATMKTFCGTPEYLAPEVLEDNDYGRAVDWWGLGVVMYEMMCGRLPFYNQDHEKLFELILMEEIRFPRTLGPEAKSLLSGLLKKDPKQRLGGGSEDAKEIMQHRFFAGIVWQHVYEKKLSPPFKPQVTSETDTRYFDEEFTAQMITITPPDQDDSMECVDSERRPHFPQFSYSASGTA

Question: Which phosphopeptides isolated (phosphopeptides) does the source give for “4-(N-(5″-biotinylaminopentyl)aminocarbonyl)-rhod tetrapotassium salt [Compound 9]” here?
Answer: Greater than 95%

Question: Which “fluorescent labeling (Compound 2/Ga3+) of arrayed peptide after kinase reaction” value [1] does the source give for Abl Protein Tyrosine Kinase (NEB) here?
Answer: Abl peptide substrate is the only fluorescently labeled peptide on the array

Question: And the “fluorescent labeling (Compound 2/Ga3+) of arrayed peptide after kinase reaction with ATP-γ-S or ATP” value [1]?
Answer: Abl peptide substrate is the only fluorescently labeled peptide on the array

Question: And the “sensitivity of detection after kinase reaction” value [1]?
Answer: Sensitivity of detection after kinase reaction is at least 0.18 ng or 0.14 pmol

Question: What about the “sensitivity of detection after kinase reaction with ATP (control)” value [1] of the same substance?
Answer: 0.325 pg of Abl peptide, in the control reaction using ATP, was labeled and detected

Question: What about the “sensitivity of detection after kinase reaction with ATP-γ-S” value [1] of the same substance?
Answer: Sensitivity of detection after kinase reaction was 2.6 pg of the peptide labeled using ATP-γ-S

Question: What about the “fluorescent labeling (Compound 2/Ga3+) of arrayed peptide after kinase reaction; Glycogen Synthase 1-10 not labeled” value [2] of the same substance?
Answer: Abl peptide substrate is the only fluorescently labeled peptide on the array

Question: And the “fluorescent labeling (Compound 2/Ga3+) of arrayed peptide after kinase reaction; Kemptide not labeled” value [3]?
Answer: Abl peptide substrate is the only fluorescently labeled peptide on the array

Question: With Akt/Protein Kinase B as the substance, how does the “fluorescent signal (Compound 2/Ga3+) of peptide charged beads, exposed to kinase against not exposed” value [4] read?
Answer: The fluorescent signal of the peptide charged beads exposed to Akt/PKB kinase was found to be 2.2-fold higher, with no overlap in standard deviation, than the control peptide charged beads not exposed to enzyme

Question: For “Calcium-Calmodulin-Dependent protein Kinase II (New England BioLabs)”, which “fluorescent labeling (Compound 2/Ga3+) of arrayed peptide after kinase reaction; Abl peptide not labeled” value [1] is on record?
Answer: glycogen synthase peptide is the only fluorescently labeled peptide on the array

Question: What about the “phosphoprotein stain signal (Compound 2/Ga3+) of the gel band, kinase reaction against no-enzyme control” value [5] of the same substance?
Answer: the signal from the band in the lane corresponding to the reaction containing the enzyme 3.4-fold greater than the no-enzyme control

Question: What about the “fluorescent labeling (Compound 2/Ga3+) of arrayed peptide after kinase reaction” value [2] of the same substance?
Answer: glycogen synthase peptide is the only fluorescently labeled peptide on the array

Question: What about the “sensitivity of detection after kinase reaction” value [2] of the same substance?
Answer: Sensitivity of detection after kinase reaction is at least 0.375 ng or 0.35 pmol

Question: Which results are given for “phosphotyrosine monoclonal antibody P-Tyr-100 (Cell Signaling Tech.)”?
Answer: sensitivity of detection [6]: 5.2 pg; sensitivity of detection [7]: 0.65 pg
